Measured values as given in article PMC7430982 (Proceedings of the National Academy of Sciences of the …, 2020).

Experiments:
cross-linking = target: the molecule itself; assay: cross-linking
crystal structure = target: the molecule itself; assay: crystal structure
cryo-EM structure = target: the molecule itself; assay: cryo-EM structure

Protein	crosslinking yield (cross-linking)	further results
NaAtm1 A527C (natural protein, disulfide between the two equivalent C527 residues of the dimer (crosslinking yield ~70%)) MPPETATNPKDARHDGWQTLKRFLPYLWPADNAVLRRRVVGAILMVLLGKATTLALPFAYKKAVDAMTLGGGAQPALTVALAFVLAYALGRFSGVLFDNLRNIVFERVGQDATRHLAENVFARLHKLSLRFHLARRTGEVTKVIERGTKSIDTMLYFLLFNIAPTVIELTAVIVIFWLNFGLGLVTATILAVIAYVWTTRTITEWRTHLREKMNRLDGQALARAVDSLLNYETVKYFGAESREEARYASAARAYADAAVKSENSLGLLNIAQALIVNLLMAGAMAWTVYGWSQGKLTVGDLVFVNTYLTQLFRPLDMLGMVYRTIRQGLIDMAEMFRLIDTHIEVADVPNAPALVVNRPSVTFDNVVFGYDRDREILHGLSFEVAAGSRVAIVGPSGAGKSTIARLLFRFYDPWEGRILIDGQDIAHVTQTSLRAALGIVPQDSVLFNDTIGYNIAYGRDGASRAEVDAAAKGAAIADFIARLPQGYDTEVGERGLKLSGGEKQRVAIARTLVKNPPILLFDEATSCLDTRTEQDILSTMRAVASHRTTISIAHRLSTIADSDTILVLDQGRLAEQGSHLDLLRRDGLYAEMWARQAAESAEVSEAAE	~70%	
NaAtm1 E523Q (ATP-hydrolysis-deficient Walker-B mutant) (natural protein) MPPETATNPKDARHDGWQTLKRFLPYLWPADNAVLRRRVVGAILMVLLGKATTLALPFAYKKAVDAMTLGGGAQPALTVALAFVLAYALGRFSGVLFDNLRNIVFERVGQDATRHLAENVFARLHKLSLRFHLARRTGEVTKVIERGTKSIDTMLYFLLFNIAPTVIELTAVIVIFWLNFGLGLVTATILAVIAYVWTTRTITEWRTHLREKMNRLDGQALARAVDSLLNYETVKYFGAESREEARYASAARAYADAAVKSENSLGLLNIAQALIVNLLMAGAMAWTVYGWSQGKLTVGDLVFVNTYLTQLFRPLDMLGMVYRTIRQGLIDMAEMFRLIDTHIEVADVPNAPALVVNRPSVTFDNVVFGYDRDREILHGLSFEVAAGSRVAIVGPSGAGKSTIARLLFRFYDPWEGRILIDGQDIAHVTQTSLRAALGIVPQDSVLFNDTIGYNIAYGRDGASRAEVDAAAKGAAIADFIARLPQGYDTEVGERGLKLSGGEKQRVAIARTLVKNPPILLFDQATSALDTRTEQDILSTMRAVASHRTTISIAHRLSTIADSDTILVLDQGRLAEQGSHLDLLRRDGLYAEMWARQAAESAEVSEAAE		binding result (crystal structure): binds
NaAtm1 (ABC transporter of mitochondria homolog from Novosphingobium aromaticivorans), wild type (natural protein) MPPETATNPKDARHDGWQTLKRFLPYLWPADNAVLRRRVVGAILMVLLGKATTLALPFAYKKAVDAMTLGGGAQPALTVALAFVLAYALGRFSGVLFDNLRNIVFERVGQDATRHLAENVFARLHKLSLRFHLARRTGEVTKVIERGTKSIDTMLYFLLFNIAPTVIELTAVIVIFWLNFGLGLVTATILAVIAYVWTTRTITEWRTHLREKMNRLDGQALARAVDSLLNYETVKYFGAESREEARYASAARAYADAAVKSENSLGLLNIAQALIVNLLMAGAMAWTVYGWSQGKLTVGDLVFVNTYLTQLFRPLDMLGMVYRTIRQGLIDMAEMFRLIDTHIEVADVPNAPALVVNRPSVTFDNVVFGYDRDREILHGLSFEVAAGSRVAIVGPSGAGKSTIARLLFRFYDPWEGRILIDGQDIAHVTQTSLRAALGIVPQDSVLFNDTIGYNIAYGRDGASRAEVDAAAKGAAIADFIARLPQGYDTEVGERGLKLSGGEKQRVAIARTLVKNPPILLFDEATSALDTRTEQDILSTMRAVASHRTTISIAHRLSTIADSDTILVLDQGRLAEQGSHLDLLRRDGLYAEMWARQAAESAEVSEAAE		binding result (cryo-EM structure): binds
NaAtm1 S526C (natural protein, disulfide between the two equivalent C526 residues of the dimer (crosslinking yield ~70%)) MPPETATNPKDARHDGWQTLKRFLPYLWPADNAVLRRRVVGAILMVLLGKATTLALPFAYKKAVDAMTLGGGAQPALTVALAFVLAYALGRFSGVLFDNLRNIVFERVGQDATRHLAENVFARLHKLSLRFHLARRTGEVTKVIERGTKSIDTMLYFLLFNIAPTVIELTAVIVIFWLNFGLGLVTATILAVIAYVWTTRTITEWRTHLREKMNRLDGQALARAVDSLLNYETVKYFGAESREEARYASAARAYADAAVKSENSLGLLNIAQALIVNLLMAGAMAWTVYGWSQGKLTVGDLVFVNTYLTQLFRPLDMLGMVYRTIRQGLIDMAEMFRLIDTHIEVADVPNAPALVVNRPSVTFDNVVFGYDRDREILHGLSFEVAAGSRVAIVGPSGAGKSTIARLLFRFYDPWEGRILIDGQDIAHVTQTSLRAALGIVPQDSVLFNDTIGYNIAYGRDGASRAEVDAAAKGAAIADFIARLPQGYDTEVGERGLKLSGGEKQRVAIARTLVKNPPILLFDEATCALDTRTEQDILSTMRAVASHRTTISIAHRLSTIADSDTILVLDQGRLAEQGSHLDLLRRDGLYAEMWARQAAESAEVSEAAE	~70%	
